Patent US20180264103A1 (ELITEIMMUNE, published 2018)

B1: fully human anti-RSV monoclonal antibody R66 (antibody, V domains shown)
VH: EVQLVESGGGLVQPGRSLRLSCTASGFTFADYSMTWVRQAPGKGLEWVGLIKRNAYGGTTEYAASVRGRFTISRDDSRSIAYLQMHSLKSEDTAVYFCLRGYSGYDWEGLDAFEVWGQGTMVTVSS
VL: DIQMTQSPSAMSASVGDRVTITCRASQGSSTYLAWFQQKPGKVPKRLIYAVSSLQSGVPSRFSGSGSGTEFTLTISSLQPEDSATYYCLQHNSFPLTFGQGTKVEIK
notes: expressed in 293T cells, Protein A purified; heavy chain about 50 kDa, light chain about 22 kDa; also called R66 antibody

Experiments:
[1] = biological target: RSV-F (Strain A2) (respiratory syncytial virus (Strain A2)) (UniProt P03420); assay: ELISA, antigen coated on plate, same conditions as R66
[2] = biological target: RSV-F (Strain RSS-2) (respiratory syncytial virus (Strain RSS-2)) (UniProt P11209); assay: as above
RSV-F (Strain A2) = biological target: T1, RSV-F (Strain A2) (respiratory syncytial virus (Strain A2), UniProt P03420 26-529); assay: ELISA, antigen coated on plate, anti-human IgG-HRP detection
T1 construct: Bought protein (Sino Biological Inc.), coated on the ELISA plate; also called glycoprotein F; antigen F of RSV
Description: (§1) To prepare coating antigen solution, RSV-F (Strain A2) and RSV-F (Strain RSS-2) (purchased from Sino Biological Inc.) were diluted with PBS (1×) (pH 7.4) buffer to the final concentration of 2 ng/μl. 100 μl of the coating antigen solution was pipetted into each well of a 96-well plate, coated overnight at 2-8° C., and washed 5 times with PBST, then each well was added with 200 μl of blocking solution for blocking for 2 hours at 37° C., and washed 5 times with PBST for 1 minute each wash after completion of blocking.
(§2) Two parallel experiments were performed, and two blank wells were set up to replace the primary antibody with PBST, incubated for 90 minutes at 37° C. and then washed 5 times with PBST.
(§3) The secondary antibody was diluted 5,000 times with the antibody diluent (PBST+1% BSA). 100 μl of diluent was added to each well, incubated for 1 hour at 37° C., then washed 5 times with PBST, added with TMB substrate solution with 100 μl/well, incubated for 15 minutes at room temperature. After the completion of the incubation H₂SO₄ stop solution was added to terminate the reaction. The absorbance of OD₄₅₀ was read on the microplate reader.

RSV-F (Strain RSS-2) = biological target: T2, RSV-F (Strain RSS-2) (respiratory syncytial virus (Strain …, UniProt P11209 26-529)); assay: as above
T2 construct: Bought protein (Sino Biological Inc.), coated on the ELISA plate; also called glycoprotein F; antigen F of RSV
T2 sequence (P11209 26-529): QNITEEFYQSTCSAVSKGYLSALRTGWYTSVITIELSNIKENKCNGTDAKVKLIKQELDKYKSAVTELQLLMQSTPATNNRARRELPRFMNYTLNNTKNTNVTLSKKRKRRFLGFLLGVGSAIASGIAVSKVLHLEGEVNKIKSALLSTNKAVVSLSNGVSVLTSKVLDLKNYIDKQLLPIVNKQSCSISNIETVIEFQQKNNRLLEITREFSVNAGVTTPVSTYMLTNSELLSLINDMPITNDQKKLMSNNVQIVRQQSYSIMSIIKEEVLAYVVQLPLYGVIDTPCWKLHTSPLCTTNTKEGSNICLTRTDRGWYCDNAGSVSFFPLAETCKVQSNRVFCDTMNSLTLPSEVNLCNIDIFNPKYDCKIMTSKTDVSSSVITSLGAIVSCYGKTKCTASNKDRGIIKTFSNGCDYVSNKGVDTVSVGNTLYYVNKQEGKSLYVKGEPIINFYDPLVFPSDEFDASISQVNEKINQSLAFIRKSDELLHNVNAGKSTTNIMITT
Description: as §1, §2, §3

T1 sequence (P03420 26-529): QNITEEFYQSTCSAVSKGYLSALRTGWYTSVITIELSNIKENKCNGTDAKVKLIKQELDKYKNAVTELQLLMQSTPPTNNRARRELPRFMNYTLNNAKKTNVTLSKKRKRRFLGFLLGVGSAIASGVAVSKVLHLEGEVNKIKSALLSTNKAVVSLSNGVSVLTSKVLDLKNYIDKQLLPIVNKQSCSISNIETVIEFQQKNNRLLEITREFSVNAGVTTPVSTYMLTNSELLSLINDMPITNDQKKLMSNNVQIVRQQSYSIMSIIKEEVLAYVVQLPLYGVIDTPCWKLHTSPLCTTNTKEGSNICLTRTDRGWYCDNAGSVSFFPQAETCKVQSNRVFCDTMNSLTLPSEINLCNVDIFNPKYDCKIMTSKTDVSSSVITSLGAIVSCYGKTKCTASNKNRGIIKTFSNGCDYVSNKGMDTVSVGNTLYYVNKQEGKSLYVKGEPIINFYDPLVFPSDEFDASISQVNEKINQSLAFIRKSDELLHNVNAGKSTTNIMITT
RSV-F (Strain A2) (respiratory syncytial virus (Strain A2)), sequence (P03420 26-529): as above
RSV-F (Strain RSS-2) (respiratory syncytial virus (Strain RSS-2)), sequence (P11209 26-529): as the sequence (P11209 26-529) above

| Molecule | EC50 [1] [ng/mL] | EC50 [2] [ng/mL] | EC50 (RSV-F (Strain A2)) [ng/mL] | EC50 (RSV-F (Strain RSS-2)) [ng/mL] |
| --- | --- | --- | --- | --- |
| Palivizumab Synagis (antibody) | 4.88 | 1.88 | – | – |
| B1 | – | – | 1.79 | 1.46 |
